The text below walks through data of patent US20180057604A1 (Genentech, published 2018).

Assay [1] concerns the target T1, human TfR extracellular domain with N-terminal His tag (human, UniProt P02786 89-760).
T1 construct: Biotinylated in some assays; also called huTfR; HuTfR
The assay is described as follows: ELISA, TfR-coated plate, IgG in culture supernatant.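 Further: human or cynomolgus TfR coated at 2 µg/mL, supernatant IgG titrated in 1:5 steps for 1 h, bound antibody read with HRP anti-human Fcγ and TMB.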 A general note: ELISA stands for enzyme-linked immunosorbent assay.
Experimental: (§1) The Hu/Cy binding ELISA was performed in maxisorp plates coated with 2 μg/ml of purified human or cyno TfR in PBS at 4° C. overnight. Plates were washed with PBS/0.05% Tween 20 and blocked using Superblock blocking buffer in PBS (Thermo Scientific, Hudson, N.H.). Cell culture supernatants containing the expressed Ala scan variant IgGs were serially diluted 1:5 and added to the wells for 1 h. Plates were washed with PBS/0.05% Tween 20 and 1:1000 diluted HRP-Goat-anti human Fcγ (Jackson ImmunoResearch) was added the plate and incubated for 1 hour at room temperature. Plates were washed with PBS/0.05% Tween 20 and detected using TMB substrate (BioFX Laboratories, Owings Mills).

The target in assay [2] is T2, cyno TfR extracellular domain (analogous construct to human TfR ecd) (cynomolgus monkey, UniProt Q5RDH6 87-760 (Pongo abelii entry)).
T2 construct: also called cynoTfR ecd
T2 chain: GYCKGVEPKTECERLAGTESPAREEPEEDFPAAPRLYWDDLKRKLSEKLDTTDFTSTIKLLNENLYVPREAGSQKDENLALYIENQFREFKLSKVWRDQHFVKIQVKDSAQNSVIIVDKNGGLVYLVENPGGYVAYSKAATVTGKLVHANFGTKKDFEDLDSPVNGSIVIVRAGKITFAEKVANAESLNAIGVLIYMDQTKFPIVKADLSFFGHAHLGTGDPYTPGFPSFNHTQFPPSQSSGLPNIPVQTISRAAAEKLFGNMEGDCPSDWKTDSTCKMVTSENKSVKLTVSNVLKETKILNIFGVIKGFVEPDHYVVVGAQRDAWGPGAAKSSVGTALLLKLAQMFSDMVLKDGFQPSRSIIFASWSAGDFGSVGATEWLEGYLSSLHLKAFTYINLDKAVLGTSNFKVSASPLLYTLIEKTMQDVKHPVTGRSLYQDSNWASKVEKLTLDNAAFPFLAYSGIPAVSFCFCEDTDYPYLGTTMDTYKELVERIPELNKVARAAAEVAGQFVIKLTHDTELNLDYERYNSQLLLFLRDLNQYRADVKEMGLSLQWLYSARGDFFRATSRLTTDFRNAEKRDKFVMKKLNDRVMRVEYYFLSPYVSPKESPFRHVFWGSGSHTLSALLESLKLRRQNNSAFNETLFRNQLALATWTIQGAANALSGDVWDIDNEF
The description is as above.
Experimental: as §1

The target of assay [3] is BACE1 in primary mouse cortical neurons (mouse, UniProt P56818 46-501). The assay is described as follows: cell-based or functional assay.
Sequence of BACE1 in primary mouse cortical neurons (P56818 46-501): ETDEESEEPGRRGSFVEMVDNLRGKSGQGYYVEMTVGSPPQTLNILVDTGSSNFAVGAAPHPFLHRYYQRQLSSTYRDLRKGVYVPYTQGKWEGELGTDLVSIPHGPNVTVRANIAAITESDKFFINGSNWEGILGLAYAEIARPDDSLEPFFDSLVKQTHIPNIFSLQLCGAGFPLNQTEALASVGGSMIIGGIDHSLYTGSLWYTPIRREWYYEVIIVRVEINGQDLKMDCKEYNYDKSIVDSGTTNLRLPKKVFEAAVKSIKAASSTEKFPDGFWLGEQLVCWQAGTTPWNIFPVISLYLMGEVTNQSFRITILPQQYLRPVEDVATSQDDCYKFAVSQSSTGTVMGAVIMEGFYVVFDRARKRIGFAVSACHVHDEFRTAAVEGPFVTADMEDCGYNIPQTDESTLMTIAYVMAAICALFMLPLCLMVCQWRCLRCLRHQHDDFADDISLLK
Assay [4] concerns the target T3, human BACE1 ECD.
T3 construct: analyte of the Octet assay (200 nM) and enzyme of the first short substrate assay; also called human BACE1 extracellular domain
In words: Octet, pH 5.0. (In BLI a coated tip is dipped into the sample, and binding shifts an interference pattern.)
Experimental: (§2) Anti-BACE1 antibodies were loaded onto anti-human capture (AHC) sensors (tips) followed by 60 seconds baseline in assay buffer. […] Tips were transferred to assay buffer for 5 minutes, 30 minutes, or 120 minutes depending on the off-rate, for off-rate measurement. Assay buffer was either PBS+0.1% BSA, pH 7.5; or PBS+0.1% BSA, pH 5.0. Kinetics were analyzed using a 1:1 binding model.

The target of assay [5] is T4, murine BACE1 ECD.
T4 construct: analyte of the Octet assay (200 nM) and enzyme of the first short substrate assay
T4 sequence (single chain, as listed by the source limits assumed): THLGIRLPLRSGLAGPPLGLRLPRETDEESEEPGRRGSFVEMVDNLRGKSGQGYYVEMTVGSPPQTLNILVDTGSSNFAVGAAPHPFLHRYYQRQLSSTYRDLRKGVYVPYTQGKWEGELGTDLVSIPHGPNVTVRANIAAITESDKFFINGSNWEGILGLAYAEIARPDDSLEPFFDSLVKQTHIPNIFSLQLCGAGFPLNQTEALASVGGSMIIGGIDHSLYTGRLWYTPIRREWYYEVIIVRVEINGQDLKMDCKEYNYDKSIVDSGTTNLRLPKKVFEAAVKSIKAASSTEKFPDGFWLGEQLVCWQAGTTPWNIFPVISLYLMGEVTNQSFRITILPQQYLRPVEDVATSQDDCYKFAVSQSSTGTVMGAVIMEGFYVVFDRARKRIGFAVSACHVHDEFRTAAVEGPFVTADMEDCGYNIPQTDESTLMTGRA
In words: Octet, pH 5.0.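 Further: antibodies captured on anti-human capture sensor tips, dissociation monitored in PBS with BSA buffer, kinetics fitted with a one-to-one binding model.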
Experimental: as §2

Assay [6] addresses T3, human BACE1 ECD. The assay is described as follows: Octet, pH 7.5.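 Further: antibodies captured on anti-human capture sensor tips, dissociation monitored in PBS with BSA, Kd obtained from kinetic fit to a one-to-one binding model.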
Experimental: as §2
The target of assay [7] is T4, murine BACE1 ECD. In words: Octet, pH 7.5.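 Further: antibodies captured on anti-human capture sensor tips, dissociation monitored in PBS with BSA, Kd obtained from kinetic fit to a one-to-one binding model.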
Experimental: as §2
The target of assay [8] is T1, human TfR extracellular domain with …. The assay is described as follows: SPR, TfR captured by anti-His, Fab injected.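 Further: single cycle kinetics with a Fab dilution series, fitted by a one-to-one Langmuir model or a steady state model, KD taken as koff over kon.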 Background: SPR reads the build-up and loss of mass on a sensor chip optically.
Target sequence in this assay (P02786 89-760 G142S): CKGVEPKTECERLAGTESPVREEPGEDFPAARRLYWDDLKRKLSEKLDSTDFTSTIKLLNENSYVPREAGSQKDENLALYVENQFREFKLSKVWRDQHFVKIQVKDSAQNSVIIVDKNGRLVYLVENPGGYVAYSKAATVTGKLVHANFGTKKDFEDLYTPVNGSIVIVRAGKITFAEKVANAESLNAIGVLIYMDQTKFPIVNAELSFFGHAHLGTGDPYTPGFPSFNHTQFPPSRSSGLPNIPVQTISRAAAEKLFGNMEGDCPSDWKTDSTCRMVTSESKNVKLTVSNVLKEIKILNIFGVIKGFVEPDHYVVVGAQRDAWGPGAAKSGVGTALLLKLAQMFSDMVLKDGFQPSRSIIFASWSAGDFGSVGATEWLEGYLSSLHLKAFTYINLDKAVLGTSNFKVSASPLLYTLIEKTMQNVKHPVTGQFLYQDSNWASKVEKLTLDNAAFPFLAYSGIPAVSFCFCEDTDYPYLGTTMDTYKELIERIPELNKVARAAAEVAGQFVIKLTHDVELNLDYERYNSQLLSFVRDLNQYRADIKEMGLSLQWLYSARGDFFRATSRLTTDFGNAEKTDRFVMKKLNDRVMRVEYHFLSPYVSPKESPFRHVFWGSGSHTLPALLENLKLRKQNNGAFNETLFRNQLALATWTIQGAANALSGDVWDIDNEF

T3 sequence (single chain, as listed by the source limits assumed): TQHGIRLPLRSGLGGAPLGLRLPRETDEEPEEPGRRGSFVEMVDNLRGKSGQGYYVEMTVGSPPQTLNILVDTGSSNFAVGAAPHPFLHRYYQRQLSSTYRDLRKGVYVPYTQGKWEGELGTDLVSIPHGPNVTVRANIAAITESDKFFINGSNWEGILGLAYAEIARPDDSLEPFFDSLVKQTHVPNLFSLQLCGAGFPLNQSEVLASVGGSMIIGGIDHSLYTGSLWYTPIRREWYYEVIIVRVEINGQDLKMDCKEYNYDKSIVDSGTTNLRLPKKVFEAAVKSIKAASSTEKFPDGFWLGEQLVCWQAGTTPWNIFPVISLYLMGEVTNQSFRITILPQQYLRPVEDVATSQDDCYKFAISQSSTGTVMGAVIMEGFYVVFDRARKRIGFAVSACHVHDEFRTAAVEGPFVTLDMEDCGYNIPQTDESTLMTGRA

B1: hu15G11.v5 IgG Ala variant Y32A (HVR-H1) (antibody, name in Kabat numbering, V domains shown)
VH: EVQLVQSGAEVKKPGASVKVSCKASGYTFTSAWMHWVRQAPGQRLEWIGEINPTNGRTNYIEKFKSRATLTVDKSASTAYMELSSLRSEDTAVYYCARGTRAYHYWGQGTMVTVSS
VL: DIQMTQSPSSLSASVGDRVTITCRASDNLYSNLAWYQQKPGKSPKLLVYDATNLADGVPSRFSGSGSGTDYTLTISSLQPEDFATYYCQHFWGTPLTFGQGTKVEIK
notes: IgG in cell culture supernatant
Turning to B1, the EC50 (commonly the midpoint of the concentration-response curve) in assay [1] was 0.4 ng/mL; in assay [2] it was 1.4 ng/mL.

B2: hu15G11.v5 IgG Ala variant Y59A (HVR-H2) (antibody, name in Kabat numbering, V domains shown)
VH: EVQLVQSGAEVKKPGASVKVSCKASGYTFTSYWMHWVRQAPGQRLEWIGEINPTNGRTNAIEKFKSRATLTVDKSASTAYMELSSLRSEDTAVYYCARGTRAYHYWGQGTMVTVSS
VL: DIQMTQSPSSLSASVGDRVTITCRASDNLYSNLAWYQQKPGKSPKLLVYDATNLADGVPSRFSGSGSGTDYTLTISSLQPEDFATYYCQHFWGTPLTFGQGTKVEIK
notes: IgG in cell culture supernatant; Kabat numbers after 52a lie one below the linear count
Regarding B2, the EC50 is 0.3 ng/mL in assay [1] and 0.7 ng/mL in assay [2].

B3: 5990 (antibody, V domains shown)
VH: QLQLQESGPGLVKPSETLSLTCTVSGGSISWSSYYWSWIRQPPGKGLEWIGSIYRSGRTYYNPSLKSRVTISVDTSKNQFSLKLSSVTAADTAVYYCARVGHGINYFDLWGRGTLVTVSS
VL: EIVLTQSPATLSLSPGERATLSCRASRSVNSYLAWYQQKPGQAPRLLIYDASKRATGIPARFSGSGSGTDFTLTISSLEPEDFAVYYCQQVYTWPPRTFGGGTKVEIK
notes: anti-BACE1 IgG
Take B3: in assay [3], the “IC50, Abeta x-40 in mouse cortical neurons” value amounted to 0.53 nM. Further, in assay [3], the “maximal % inhibition of Abeta x-40” value came out at 61%. Further, the Kd (as a rule, a measure of binding affinity in units of concentration) is below 0.18 nM in assay [4], below 0.23 nM in assay [5], below 0.18 nM in assay [6] and below 0.18 nM in assay [7].

B4: 6285 (antibody, V domains shown)
VH: QLQLQESGPGLVKPSETLSLTCTVSGGSTSSSSYYWGWIRQPPGKGLEWIGSIYRSGSTYYNPSLKSRVTISVDTSKNQFSLKLSSVTAADTAVYYCARVGHGISYFDLWGRGTLVTVSS
VL: EIVLTQSPATLSLSPGERATLSCRASQSVSSYLAWYQQKPGQAPRLLIYDASSRATGIPARFSGSGSGTDFTLTISSLEPEDFAVYYCQQSLTWPPRTFGGGTKVEIK
notes: anti-BACE1 IgG
As for B4, in assay [3], the “IC50, Abeta x-40 in mouse cortical neurons” value was 15.4 nM. For the same molecule, in assay [3], the “maximal % inhibition of Abeta x-40” value is 57%. The Kd is 0.43 nM in assay [4], 0.41 nM in assay [5], 0.32 nM in assay [6] and below 0.28 nM in assay [7].

B5: 6280 (antibody, V domains shown)
VH: QLQLQESGPGLVKPSETLSLTCTVSGGSTSSSSYYWGWIRQPPGKGLEWIGSIYRSGSTYYNPSFKSRVTISVDTSKNQFSLKLSSVTAADTAVYYCARVGHGISYFDLWGRGTLVTVSS
VL: EIVLTQSPATLSLSPGERATLSCRASQSVSSYLAWYQQKPGQAPRLLIYDASNRATGIPARFSGSGSGTDFTLTISSLEPEDFAVYYCQQSLTWPPRTFGGGTKVEIK
notes: anti-BACE1 IgG
As to B5, the “IC50, Abeta x-40 in mouse cortical neurons” value in assay [3] came out at 8.29 nM. The “maximal % inhibition of Abeta x-40” value in assay [3] was 65%. Moreover, the Kd in assay [4] was 0.31 nM; in assay [5], below 0.31 nM; in assay [6], below 0.32 nM; in assay [7] it was below 0.32 nM.

B6: 5987 (antibody, V domains shown)
VH: QVQLVQSGAEVKKPGSSVKVSCKASGGTLSGYAISWVRQAPGQGLEWMGNIIPGFGTANYAQKSQGRVTITADESTSTAYMELSSLRSEDTAVYYCARSGGTRYGMLDVWGQGTMVTVSS
VL: EIVMTQSPATLSVSPGERATLSCRASQSVSSNLAWYQQKPGQAPRLLIYGASTRATGIPARFSGSGSGTEFTLTISSLQSEDFAVYYCQQLFLWPPRTFGGGTKVEIK
notes: anti-BACE1 IgG
Consider B6, for which the “IC50, Abeta x-40 in mouse cortical neurons” value in assay [3] worked out at 7.2 nM. In addition, the “maximal % inhibition of Abeta x-40” value in assay [3] came out at 69%. Besides, the Kd in assay [4] was below 0.25 nM; in assay [5], below 0.29 nM; in assay [6], below 0.32 nM; in assay [7] it was below 0.29 nM.

B7: 5988 (antibody, V domains shown)
VH: QVQLVQSGAEVKKPGSSVKVSCKASGGTLSGYAISWVRQAPGQGLEWMGNIIPGFGTANYAQKSQGRVTITADESTSTAYMELSSLRSEDTAVYYCARSGGTRYGMLDVWGQGTMVTVSS
VL: GIVMTQSPATLSVSPGERATLSCRASQSVGSNLAWYQQKPGQAPRLLIYGASTRATGIPARFSGSGSGTEFTLTISSLQSEDFAVYYCQQLYTWPPRTFGGGTKVEIK
notes: anti-BACE1 IgG
For the molecule B7, the “IC50, Abeta x-40 in mouse cortical neurons” value in assay [3] amounted to 3.55 nM. In addition, the “maximal % inhibition of Abeta x-40” value in assay [3] is 75%. Further, the Kd was below 0.25 nM in assay [4], below 0.29 nM in assay [5], below 0.29 nM in assay [6] and below 0.29 nM in assay [7].

B8: 6273 (antibody, V domains shown)
VH: QVQLVQSGAEVKKPGSSVKVSCKASGGTFSGYGISWVRQAPGQGLEWMGNIIPGFGTANYAQKFQGRVTITADESTSTAYMELSSLRSEDTAVYYCARSGGTKYGMLDVWGQGTMVTVSS
VL: EIVMTQSPATLSVSPGERATLSCRASQSVSSNIAWYQQKPGQAPRLLIYGASTRATGIPARFSGSGSGTEFTLTISSLQSEDFAVYYCQQLLLWPPRTFGGGTKVEIK
notes: anti-BACE1 IgG
Consider B8, for which, in assay [3], the “IC50, Abeta x-40 in mouse cortical neurons” value amounted to 5.71 nM. Moreover, the “maximal % inhibition of Abeta x-40” value in assay [3] worked out at 82%. The Kd is below 0.26 nM in assay [4], below 0.4 nM in assay [5], below 0.39 nM in assay [6] and below 0.39 nM in assay [7].

B9: 6271 (antibody, V domains shown)
VH: QVQLVQSGAEVKKPGSSVKVSCKASGGTISGYGISWVRQAPGQGLEWMGNIIPGFGTANYAQKFQGRVTITADESTSTAYMELSSLRSEDTAVYYCARSGGTKYGMLDVWGQGTMVTVSS
VL: EIVMTQSPATLSVSPGERATLSCRASQSVSSNLAWYQQKPGQAPRLLIYGASTRATGIPARFSGSGSGTEFTLTISSLQSEDFAVYYCQQLILWPPRTFGGGTKVEIK
notes: anti-BACE1 IgG
Regarding B9, in assay [3], the “IC50, Abeta x-40 in mouse cortical neurons” value stood at 1.77 nM. The “maximal % inhibition of Abeta x-40” value in assay [3] stood at 83%. The Kd in assay [4] is below 0.24 nM; in assay [5], below 0.31 nM; in assay [6], below 0.31 nM; in assay [7], below 0.31 nM.

B10: 6272 (antibody, V domains shown)
VH: QVQLVQSGAEVKKPGSSVKVSCKASGGTFSGYGISWVRQAPGQGLEWMGNIIPGFGTANYAQKFQGRVTITADESTSTAYMELSSLRSEDTAVYYCARSGGTKYGMLDVWGQGTMVTVSS
VL: EIVMTQSPATLSVSPGERATLSCRASQSVSSNLAWYQQKPGQAPRLLIYGASTRATGIPARFSGSGSGTEFTLTISSLQSEDFAVYYCQQLFLWPPRTFGGGTKVEIK
notes: anti-BACE1 IgG
In the case of B10, in assay [3], the “IC50, Abeta x-40 in mouse cortical neurons” value was found to be 43.6 nM. For the same molecule, the “maximal % inhibition of Abeta x-40” value in assay [3] was determined as 82%. Further, the Kd was below 0.39 nM in assay [4], below 0.4 nM in assay [5], below 0.87 nM in assay [6] and below 0.41 nM in assay [7].

B11: 6276 (antibody, V domains shown)
VH: QVQLVQSGAEVKKPGSSVKVSCKASGGTFRGYAISWVRQAPGQGLEWMGNIIPGLSTANYAQKFQGRVTITADESTSTAYMELSSLRSEDTAVYYCARSGGTKYGMLDVWGQGTMVTVSS
VL: EIVMTQSPATLSVSPGERATLSCRASQSVSSNLAWYQQKPGQAPRLLIYGASTRATGIPARFSGSGSGTEFTLTISSLQSEDFAVYYCQQLILWPPRTFGGGTKVEIK
notes: anti-BACE1 IgG
Turning to B11, in assay [3], the “IC50, Abeta x-40 in mouse cortical neurons” value was 7.4 nM. For the same molecule, the “maximal % inhibition of Abeta x-40” value in assay [3] was 81%. Besides, the Kd in assay [4] was below 0.41 nM; in assay [5], below 0.54 nM; in assay [6], below 0.59 nM; in assay [7], below 0.62 nM.

B12: Hu7A4.v5.Fab (Fab, V domains shown)
VH: EVQLVQSGAEVKKPGASVKVSCKASGYTFTDYAMHWVRQAPGQGLEWMGGISTYFGRTNYNQKFKGRVTMTRDTSISTAYMELSRLRSDDTAVYYCARGLSGNYVMDYWGQGTTVTVSS
VL: DIVMTQSPDSLAVSLGERATINCRASESVDSYGNSFMHWYQQKPGQPPKLLIYRASNLESGIPDRFSGSGSGTDFTLTISSLQAEDVAVYYCQQSNEGPPTFGQGTKLEIK
notes: Fab
Regarding B12, in assay [8], the Kd turned out to be 0.686 nM; the koff – broadly, the first-order rate constant of dissociation – was 0.00153 s⁻¹; the kon (commonly a measure of how fast the partners come together) is 2.24e+06 M⁻¹ s⁻¹.

B13: Hu7A4.v8.Fab (Fab, V domains shown)
VH: EVQLVQSGAEVKKPGASVKVSCKGSGYTFTDYAMHWVRQAPGQGLEWMGGISTYFGRTNYNQKFKGRVTMTVDTSISTAYMELSRLRSDDTAVYYCARGLSGNYVMDYWGQGTTVTVSS
VL: DIVMTQSPDSLAVSLGERATINCRASESVDSYGNSFMHWYQQKPGQPPKLLIYRASNLESGIPDRFSGSGSGTDFTLTISSLQAEDVAVYYCQQSNEGPPTFGQGTKLEIK
notes: Fab
In assay [8], B13 had a Kd of 1.15 nM, a koff of 0.00107 s⁻¹ and an on-rate constant (kon) of 928000 M⁻¹ s⁻¹.
